Laboratory results: the supplement of paper PMC9112550, “Optimization of the antimicrobial peptide Bac7 by deep mutational scanning” (BMC Biology, 2022)

Test system: Escherichia coli TOP10
Assay: shrunken log2 fold change of peptide-encoding DNA abundance (4.5 h post-induction vs induction); higher = less antimicrobial activity (less host growth inhibition)
Details: time post-induction: 4.5 h; library: site-saturation at positions 5, 18, 19, 20
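Note: peptides expressed intracellularly from a pBAD plasmid library in pooled LB shake-flask culture, induced with 0.3% L-arabinose, DNA abundance read by NGS, three biological replicates, DESeq2 with apeglm shrinkage.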

## RRIRHRPPRLPRPRPRPDYAPRP
  shrunken log2 fold change: -0.171

## RRIRFRPPRLPRPRPRPQIIPRP
  shrunken log2 fold change: -0.149

## RRIRSRPPRLPRPRPRPAVRPRP
  shrunken log2 fold change: -0.103

## RRIRVRPPRLPRPRPRPLVSPRP
  shrunken log2 fold change: 0.339

## RRIRLRPPRLPRPRPRPQHVPRP
  shrunken log2 fold change: -0.316

## RRIRPRPPRLPRPRPRPIPPPRP
  shrunken log2 fold change: -0.0888

## RRIRMRPPRLPRPRPRPGRIPRP
  shrunken log2 fold change: 0.0372

## RRIRMRPPRLPRPRPRPTSHPRP
  shrunken log2 fold change: 0.0149

## RRIRNRPPRLPRPRPRPCQEPRP
  shrunken log2 fold change: 0.15

## RRIRKRPPRLPRPRPRPTCAPRP
  shrunken log2 fold change: 0.786

## RRIRNRPPRLPRPRPRPVIAPRP
  shrunken log2 fold change: -0.25

## RRIRQRPPRLPRPRPRPMYWPRP
  shrunken log2 fold change: 0.0971

## RRIRFRPPRLPRPRPRPHSMPRP
  shrunken log2 fold change: -0.328

## RRIRQRPPRLPRPRPRPCNVPRP
  shrunken log2 fold change: -0.0261

## RRIRKRPPRLPRPRPRPAAHPRP
  shrunken log2 fold change: 0.408

## RRIRYRPPRLPRPRPRPYLSPRP
  shrunken log2 fold change: -0.274

## RRIRIRPPRLPRPRPRPKVGPRP
  shrunken log2 fold change: 0.164

## RRIRYRPPRLPRPRPRPGWRPRP
  shrunken log2 fold change: 0.386

## RRIRWRPPRLPRPRPRPEKSPRP
  shrunken log2 fold change: 0.486

## RRIRERPPRLPRPRPRPTKDPRP
  shrunken log2 fold change: -0.239

## RRIRMRPPRLPRPRPRPYHPPRP
  shrunken log2 fold change: -0.423

## RRIRYRPPRLPRPRPRPALIPRP
  shrunken log2 fold change: -0.273

## RRIRHRPPRLPRPRPRPDKSPRP
  shrunken log2 fold change: -0.276

## RRIRDRPPRLPRPRPRPRETPRP
  shrunken log2 fold change: 0.567

## RRIRTRPPRLPRPRPRPSSFPRP
  shrunken log2 fold change: -0.284

## RRIRARPPRLPRPRPRPVEPPRP
  shrunken log2 fold change: 0.297

## RRIRVRPPRLPRPRPRPATPPRP
  shrunken log2 fold change: 0.35

## RRIRHRPPRLPRPRPRPQLKPRP
  shrunken log2 fold change: 0.114

## RRIRPRPPRLPRPRPRPVRAPRP
  shrunken log2 fold change: 0.622

## RRIRTRPPRLPRPRPRPSMWPRP
  shrunken log2 fold change: 0.103

## RRIRQRPPRLPRPRPRPGCKPRP
  shrunken log2 fold change: -0.0467

## RRIRPRPPRLPRPRPRPDEFPRP
  shrunken log2 fold change: -0.203

## RRIRFRPPRLPRPRPRPTKGPRP
  shrunken log2 fold change: -0.0144

## RRIRVRPPRLPRPRPRPTAQPRP
  shrunken log2 fold change: -0.113

## RRIRWRPPRLPRPRPRPYWRPRP
  shrunken log2 fold change: 0.00194

## RRIRPRPPRLPRPRPRPVICPRP
  shrunken log2 fold change: 0.0853

## RRIRMRPPRLPRPRPRPWWMPRP
  shrunken log2 fold change: 0.0885

## RRIRMRPPRLPRPRPRPSRQPRP
  shrunken log2 fold change: 0.956

## RRIRDRPPRLPRPRPRPDKCPRP
  shrunken log2 fold change: 0.089

## RRIRTRPPRLPRPRPRPQRQPRP
  shrunken log2 fold change: 0.455

## RRIRSRPPRLPRPRPRPAGVPRP
  shrunken log2 fold change: 0.0729

## RRIRWRPPRLPRPRPRPSGRPRP
  shrunken log2 fold change: 0.201

## RRIRERPPRLPRPRPRPFQNPRP
  shrunken log2 fold change: 0.02

## RRIRQRPPRLPRPRPRPAWQPRP
  shrunken log2 fold change: 0.147

## RRIRSRPPRLPRPRPRPMCFPRP
  shrunken log2 fold change: -0.149

## RRIRQRPPRLPRPRPRPFLAPRP
  shrunken log2 fold change: 0.286

## RRIRARPPRLPRPRPRPSRSPRP
  shrunken log2 fold change: 0.349

## RRIRHRPPRLPRPRPRPFFVPRP
  shrunken log2 fold change: -0.224

## RRIRQRPPRLPRPRPRPNSDPRP
  shrunken log2 fold change: -0.594

## RRIRIRPPRLPRPRPRPAKIPRP
  shrunken log2 fold change: -0.176

## RRIRARPPRLPRPRPRPKVFPRP
  shrunken log2 fold change: 0.193

## RRIRFRPPRLPRPRPRPMNKPRP
  shrunken log2 fold change: -0.65

## RRIRGRPPRLPRPRPRPELMPRP
  shrunken log2 fold change: 0.853

## RRIRNRPPRLPRPRPRPIMHPRP
  shrunken log2 fold change: 0.00105

## RRIRWRPPRLPRPRPRPCLPPRP
  shrunken log2 fold change: -0.341

## RRIRERPPRLPRPRPRPTGLPRP
  shrunken log2 fold change: 0.235

## RRIRFRPPRLPRPRPRPEWRPRP
  shrunken log2 fold change: 0.531

## RRIRYRPPRLPRPRPRPVSMPRP
  shrunken log2 fold change: -0.00201

## RRIRVRPPRLPRPRPRPSSTPRP
  shrunken log2 fold change: -0.398

## RRIRPRPPRLPRPRPRPGHWPRP
  shrunken log2 fold change: 0.123

## RRIRERPPRLPRPRPRPMAQPRP
  shrunken log2 fold change: 0.00812

## RRIRHRPPRLPRPRPRPMIKPRP
  shrunken log2 fold change: -0.0726

## RRIRGRPPRLPRPRPRPQFKPRP
  shrunken log2 fold change: 0.0112

## RRIRIRPPRLPRPRPRPYPGPRP
  shrunken log2 fold change: -0.0674

## RRIRSRPPRLPRPRPRPMDFPRP
  shrunken log2 fold change: -0.215

## RRIRSRPPRLPRPRPRPQVQPRP
  shrunken log2 fold change: 0.374

## RRIRPRPPRLPRPRPRPETIPRP
  shrunken log2 fold change: -0.157

## RRIRSRPPRLPRPRPRPYNSPRP
  shrunken log2 fold change: -0.287

## RRIRIRPPRLPRPRPRPFDPPRP
  shrunken log2 fold change: -0.438

## RRIRTRPPRLPRPRPRPPFDPRP
  shrunken log2 fold change: 0.104

## RRIRFRPPRLPRPRPRPGADPRP
  shrunken log2 fold change: 0.187

## RRIRTRPPRLPRPRPRPTYFPRP
  shrunken log2 fold change: -0.313

## RRIRKRPPRLPRPRPRPPNAPRP
  shrunken log2 fold change: 0.711

## RRIRHRPPRLPRPRPRPLEMPRP
  shrunken log2 fold change: -0.236

## RRIRPRPPRLPRPRPRPPDKPRP
  shrunken log2 fold change: 0.266

## RRIRCRPPRLPRPRPRPPPCPRP
  shrunken log2 fold change: 1.07

## RRIRDRPPRLPRPRPRPPLSPRP
  shrunken log2 fold change: 0.0434

## RRIRCRPPRLPRPRPRPCSTPRP
  shrunken log2 fold change: -0.245

## RRIRHRPPRLPRPRPRPVPTPRP
  shrunken log2 fold change: 0.144

## RRIRARPPRLPRPRPRPEVDPRP
  shrunken log2 fold change: 0.935

## RRIRQRPPRLPRPRPRPMDYPRP
  shrunken log2 fold change: -0.0062

## RRIRERPPRLPRPRPRPTEQPRP
  shrunken log2 fold change: -0.00926

## RRIRIRPPRLPRPRPRPPYVPRP
  shrunken log2 fold change: -0.121

## RRIRWRPPRLPRPRPRPKKRPRP
  shrunken log2 fold change: 0.426

## RRIRMRPPRLPRPRPRPTFMPRP
  shrunken log2 fold change: 0.154

## RRIRDRPPRLPRPRPRPTIRPRP
  shrunken log2 fold change: 0.124

## RRIRFRPPRLPRPRPRPCSVPRP
  shrunken log2 fold change: -0.338

## RRIRCRPPRLPRPRPRPPLQPRP
  shrunken log2 fold change: 0.228

## RRIRVRPPRLPRPRPRPMIPPRP
  shrunken log2 fold change: -0.319

## RRIRDRPPRLPRPRPRPVVWPRP
  shrunken log2 fold change: 0.902

## RRIRSRPPRLPRPRPRPCTMPRP
  shrunken log2 fold change: -0.154

## RRIRKRPPRLPRPRPRPMEPPRP
  shrunken log2 fold change: 0.0318

## RRIRFRPPRLPRPRPRPFLNPRP
  shrunken log2 fold change: -0.484

## RRIRQRPPRLPRPRPRPGTDPRP
  shrunken log2 fold change: -0.0507

## RRIRVRPPRLPRPRPRPSWPPRP
  shrunken log2 fold change: 0.493

## RRIRHRPPRLPRPRPRPNKTPRP
  shrunken log2 fold change: -0.0741

## RRIRGRPPRLPRPRPRPAQTPRP
  shrunken log2 fold change: 0.221

## RRIRNRPPRLPRPRPRPMNNPRP
  shrunken log2 fold change: -0.749

## RRIRDRPPRLPRPRPRPKVPPRP
  shrunken log2 fold change: -0.00145

## RRIRTRPPRLPRPRPRPVSMPRP
  shrunken log2 fold change: -0.812

## RRIRQRPPRLPRPRPRPWSCPRP
  shrunken log2 fold change: -0.462

## RRIRARPPRLPRPRPRPWGPPRP
  shrunken log2 fold change: -0.119

## RRIRIRPPRLPRPRPRPPMEPRP
  shrunken log2 fold change: -0.0294

## RRIRARPPRLPRPRPRPQCCPRP
  shrunken log2 fold change: 0.219

## RRIRSRPPRLPRPRPRPQGKPRP
  shrunken log2 fold change: 0.0304

## RRIRKRPPRLPRPRPRPLVWPRP
  shrunken log2 fold change: 0.298

## RRIRDRPPRLPRPRPRPPAFPRP
  shrunken log2 fold change: 0.192

## RRIRLRPPRLPRPRPRPWDWPRP
  shrunken log2 fold change: 0.185

## RRIRTRPPRLPRPRPRPKMNPRP
  shrunken log2 fold change: -0.558

## RRIRARPPRLPRPRPRPQNQPRP
  shrunken log2 fold change: -0.141

## RRIRVRPPRLPRPRPRPPIIPRP
  shrunken log2 fold change: -0.222

## RRIRKRPPRLPRPRPRPNWVPRP
  shrunken log2 fold change: -0.087

## RRIRDRPPRLPRPRPRPNNLPRP
  shrunken log2 fold change: -0.556

## RRIRQRPPRLPRPRPRPAAEPRP
  shrunken log2 fold change: 0.19

## RRIRCRPPRLPRPRPRPMCDPRP
  shrunken log2 fold change: 0.128

## RRIRWRPPRLPRPRPRPNQYPRP
  shrunken log2 fold change: -0.113

## RRIRIRPPRLPRPRPRPEKAPRP
  shrunken log2 fold change: -0.0795

## RRIRNRPPRLPRPRPRPSVIPRP
  shrunken log2 fold change: -0.781

## RRIRIRPPRLPRPRPRPDQAPRP
  shrunken log2 fold change: -0.002

## RRIRNRPPRLPRPRPRPQRYPRP
  shrunken log2 fold change: -0.602

## RRIRFRPPRLPRPRPRPLFFPRP
  shrunken log2 fold change: -0.259

## RRIRLRPPRLPRPRPRPCIWPRP
  shrunken log2 fold change: -0.21

## RRIRDRPPRLPRPRPRPENGPRP
  shrunken log2 fold change: 0.0234

## RRIRGRPPRLPRPRPRPLKQPRP
  shrunken log2 fold change: -0.115

## RRIRFRPPRLPRPRPRPTHRPRP
  shrunken log2 fold change: -0.0781
